In patent publication US7314747B1, “SMRT co-repressors, transcriptional co-repressors that interact with nuclear hormone receptors” (The Salk Institute for Biological Studies, priority 1995, dated 2008):

Assays:
E52-RAR interaction = target: T1, E52-RAR interaction (Homo sapiens, UniProt P10276); test: Yeast two-hybrid assay, E52-RAR interaction; type: cell-based; details: 3 μM ligand
T1 construct: hRAR (amino acids 186-462); expressed in transfected cells; host or cells: Y190 yeast cells
T1 sequence (P10276 186-462): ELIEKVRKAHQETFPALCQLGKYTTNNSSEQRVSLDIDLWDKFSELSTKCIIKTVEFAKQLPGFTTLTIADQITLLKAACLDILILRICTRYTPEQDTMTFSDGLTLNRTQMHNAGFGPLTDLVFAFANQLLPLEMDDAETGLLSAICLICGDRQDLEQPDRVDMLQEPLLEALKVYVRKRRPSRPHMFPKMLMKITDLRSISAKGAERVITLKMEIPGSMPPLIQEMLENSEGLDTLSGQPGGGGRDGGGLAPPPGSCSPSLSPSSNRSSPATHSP
Procedure: Transformants were selected onto DO-Leu-Trp-His plates containing 40 mM 3-aminotriazole (Sigma) for 3-4 days. Surviving yeast colonies were picked as primary positives and restreaked on selection plates to isolate single clones. Activation domain plasmids were rescued from the selected positive transformants for further analysis. Each clone was evaluated by testing its potential interaction with several other nuclear receptors using the yeast two-hybrid assays. […] Quantitative liquid assay of β-galactosidase was performed on positive clones 16 hr after treating the yeast cells with no ligand, or with 3 μM ligand.

[1] = target: GST-SMRT (GST fusion of the C-SMRT encoded by the yeast two hybrid clone) (human) (UniProt Q9Y618); test: far-western: 35S-labelled receptor on immobilized GST-SMRT, phosphoimager
EcR A483T = target: T2, EcR A483T (Drosophila, UniProt P34021 1-878); test: mammalian two-hybrid in CV-1 cells (with VP16-USP)
T2 construct: CMV vector, cotransfected with VP16-USP; also called repression-defective EcR allele
T2 sequence (looked up): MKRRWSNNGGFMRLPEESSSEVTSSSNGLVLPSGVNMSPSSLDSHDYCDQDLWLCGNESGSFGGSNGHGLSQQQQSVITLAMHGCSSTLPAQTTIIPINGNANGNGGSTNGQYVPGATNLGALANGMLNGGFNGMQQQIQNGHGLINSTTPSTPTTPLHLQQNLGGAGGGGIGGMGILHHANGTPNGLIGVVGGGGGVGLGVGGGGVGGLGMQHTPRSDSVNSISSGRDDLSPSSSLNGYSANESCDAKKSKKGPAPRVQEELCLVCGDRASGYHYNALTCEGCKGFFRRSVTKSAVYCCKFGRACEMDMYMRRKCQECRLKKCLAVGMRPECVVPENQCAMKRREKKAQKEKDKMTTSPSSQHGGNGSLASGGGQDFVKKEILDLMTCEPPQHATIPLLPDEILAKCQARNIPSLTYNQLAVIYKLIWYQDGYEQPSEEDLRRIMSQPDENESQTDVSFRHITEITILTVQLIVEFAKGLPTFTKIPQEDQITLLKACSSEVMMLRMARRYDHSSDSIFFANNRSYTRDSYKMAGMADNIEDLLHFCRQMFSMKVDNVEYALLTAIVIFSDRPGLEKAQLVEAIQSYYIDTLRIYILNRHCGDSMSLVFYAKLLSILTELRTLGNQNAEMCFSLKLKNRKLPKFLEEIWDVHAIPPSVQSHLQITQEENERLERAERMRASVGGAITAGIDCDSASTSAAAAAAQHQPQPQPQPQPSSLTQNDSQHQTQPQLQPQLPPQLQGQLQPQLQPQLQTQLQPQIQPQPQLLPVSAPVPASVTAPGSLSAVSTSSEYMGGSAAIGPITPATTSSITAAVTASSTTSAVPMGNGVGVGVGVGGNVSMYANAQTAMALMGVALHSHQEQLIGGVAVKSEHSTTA

[2] = target: T3, GST-SMRT (GST fusion of the C-SMRT encoded by the yeast two hybrid clone) (human, UniProt Q9Y618 2000-2514); test: far-western: 35S-labelled receptor on GST-SMRT, phosphoimager
T3 construct: also called immobilized GST-SMRT; not shown: glutathione S-transferase (GST) tag

[3] = system: GAL4-TK-luciferase reporter in CV-1 cells; test: GAL4-SMRT amino terminus fusions cotransfected with GAL4-TK-luciferase reporter in CV-1 cells; type: cell-based, Monkey; details: luciferase normalized to β-galactosidase
Procedure: Experiments were performed using the plasmids pCMX-GAL4 DBD and pMH100-TK-luc (Nagy et al., (1997), supra). Standard PCR amplifications were used to generate GAL4 fusion constructs. All constructs were verified by double-stranded sequencing to confirm identity and reading frame.
Monkey CV-1 cells were grown in DMEM supplemented with 10% resin-charcoal stripped fetal bovine serum (FBS), 50 units/ml of penicillin G, and 50 μg/ml of streptomycin sulfate at 37° C. in 7% CO2. V-1 cells (60-70% confluence, 48-well plate) were cotransfected with 16 ng of pCMX-GAL4, 100 ng of pMH100-TK-luc, and 100 ng of pCMX-β galactosidase in 200 μl of DMEM containing 10% super-stripped fetal calf serum (FCS) by the N-(1-(2,3-dioleoyloxy)propyl)-N,N,N-trimethylammonium methylsulfate (DOTAP)-mediated procedure (Nagy et al., (1997), supra). The amount of DNA in each transfection was kept constant by addition of pCMX. After 24 hr, the medium was replaced; cells were harvested and assayed for luciferase activity 36 to 48 hr after transfection. […]
Based on the high degree of identity between regions of the SMRT amino terminus and the corresponding N-CoR region, the ability of regions in the SMRT amino terminus to act in transcriptional repression was examined. […] Repression was determined relative to the basal activity of the reporter in the presence of the GAL-DBD alone.

Q: With `CC1=C(/C=C/C(C)=C/C=C/C(C)=C/C(=O)O)C(C)(C)CCC1` [atRA, all-trans retinoic acid] as the molecule, how does the “dissociation of the interaction between E52 and RAR by ligand” value (E52-RAR interaction) read?
A: Its value is “can be dissociated”.

Q: “RAR403 (carboxy-terminal deletion mutant of RAR) (from UniProt P10276 1-403) (receptor)” was tested. Which fold interaction relative to wild type RAR (phosphoimager) [1] did it give?
A: Its fold interaction relative to wild type RAR (phosphoimager) is 4 fold.

B1: Gal4-c-SMRT (aa 981 to C terminus) (other)
chain: MKLLSSIEQACDICRLKKLKCSKEKPKCAKCLKNNWECRYSPKTKRSPLTRAHLTEVESRLERLEQLFLLIFPREDLDMILKMDSLQDIKALLTGLFVQDNVNKDAVTDRLASVETDMPLTLRQHRISATSSSEESSNKGQRQLTVSAPHHASPDPPAPPASASDPHREKTQSKPFSIQELELRSLGYHGSSYSPEGVEPVSPVSSPSLTHDKGLPKHLEELDKSHLEGELRPKQPGPVKLGGEAAHLPHLRPLPESQPSSSPLLQTAPGVKGHQRVVTLAQHISEVITQDYTRHHPQQLSAPLPAPLYSFPGASCPVLDLRRPPSDLYLPPPDHGAPARGSPHSEGGKRSPEPNKTSVLGGGEDGIEPVSPPEGMTEPGHSRSAVYPLLYRDGEQTEPSRMGSKSPGNTSQPPAFFSKLTESNSAMVKSKKQEINKKLNTHNRNEPEYNISQPGTEIFNMPAITGTGLMTYRSQAVQEHASTNMGLEAIIRKALMGGGKAKVSGRPSSRKAKSPAPGLASGDRPPSVSSVHSEGDCNRRTPLTNRVWEDRPSSAGSTPFPYNPLIMRLQAGVMASPPPPGLPAGSGPLAGPHHAWDEEPKPLLCSQYETLSDSE
notes: also called vertebrate corepressor
Q: Does B1 bind (EcR A483T)?
A: Result: no binding

B2: v-erbA (naturally occurring oncogene, oncogenic TR variant) (receptor)
chain: REEQVTSEQAKFWLGLGGGRVSPPGPECIEKPATERRIDKGEEMGETTVQRDAKMAPEKMATPKTVGTSCYQCGTATGCNCVTASAPPPPYVGSGLYPSLAGAGEQGQGGDTPRGAEQPRAEPGHAGQAPGPALTDWARIREELASTGPPVVAMPVVIKTEGPAWTPLEPEDTRWLDGKHKRKSSQCLVKSSMSGYIPSCLDKDEQCVVCGDKATGYHYRCITCEGCKSFFRRTIQKNLHPTYSCTYDGCCVIDKITRNQCQLCRFKKCISVGMAMDLVLDDSKRVAKRKLIEENRERRRKEEMIKSLQHRPSPSAEEWELIHVVTEAHRSTNAQGSHWKQRRKFLLEDIGQSPMASMLDGDKVDLEAFSEFTKIITPAITRVVDFAKNLPMFSELPCEDQIILLKGCCMEIMSLRAAVRYDPESETLTLSGEMAVKREQLKNGGLGVVSDAIFDLGKSLSAFNLDDTEVALLQAVLLMSSDRTGLICVDKIEKCQESYLLAFEHYINYRKHNIPHFWSKLLMKVADLRMIGAYHASRFLHMKVECPTELSPQEV
Q: B2 was tested. Which “fold interaction relative to hTRβ (phosphoimager)” value [2] did it give?
A: Its value is 18 fold.

B3: m-SMRTβ (amino acids 1 to 813): construct containing the entire amino terminus of m-SMRTβ (protein, UniProt Q9WU42 1-813, looked up, fragment)
chain: MSGSTQPVAQTWRAAEPRYPPHGISYPVQIARSHTDVGLLEYQHHPRDYTSHLSPGSIIQPQRRRPSLLSEFQPGSERSQELHLRPESRTFLPELGKPDIEFTESKRPRLELLPDTLLRPSPLLATGQPSGSEDLTKDRSLAGKLEPVSPPSPPHADPELELAPSRLSKEELIQNMDRVDREITMVEQQISKLKKKQQQLEEEAAKPPEPEKPVSPPPIESKHRSLVQIIYDENRKKAEAAHRILEGLGPQVELPLYNQPSDTRQYHENIKINQAMRKKLILYFKRRNHARKQWEQRFCQRYDQLMEAWEKKVERIENNPRRRAKESKVREYYEKQFPEIRKQRELQERMQSRVGQRGSGLSMSAARSEHEVSEIIDGLSEQENLEKQMRQLAVIPPMLYDADQQRIKFINMNGLMDDPMKVYKDRQVTNMWSEQERDTFREKFMQHPKNFGLIASFLERKTVAECVLYYYLTKKNENYKSLVRRSYRRRGKSQQQQQQQQQQQQQQMARSSQEEKEEKEKEKEADKEEEKQDAENEKEELSKEKTDDTSGEDNDEKEAVASKGRKTANSQGRRKGRITRSMANEANHEETATPQQSSELASMEMNESSRWTEEEMETAKKGLLEHGRNWSAIARMVGSKTVSQCKNFYFNYKKRQNLDEILQQHKLKMEKERNARRKKKKTPAAASEETAFPPAAEDEEMEASGASANEEELAEEAEASQASGNEVPRVGECSGPAAVNNSSDTESVPSPRSEATKDTGPKPTGTEALPAATQPPVPPPEEPAVAPAEPSPVPDASGPPSPEPSPSPAAPPA
modifications: SMRTbeta
Q: With B3 as the molecule, how does the “repression relative to basal reporter activity with GAL-DBD alone” value [3] read?
A: Its value is “about 2.6 fold”.

B4: TR160 (rTRα Pro 160->Arg mutant, full length) (receptor, rat (printed as rTRα), UniProt P63059 1-492, looked up)
chain: MEQKPSKVECGSDPEENSARSPDGKRKRKNGQCPLKSSMSGYIPSYLDKDEQCVVCGDKATGYHYRCITCEGCKGFFRRTIQKNLHPTYSCKYDSCCVIDKITRNQCQLCRFKKCIAVGMAMDLVLDDSKRVAKRKLIEQNRERRRKEEMIRSLQQRPERTPEEWDLIHVATEAHRSTNAQGSHWKQRRKFLPDDIGQSPIVSMPDGDKVDLEAFSEFTKIITPAITRVVDFAKKLPMFSELPCEDQIILLKGCCMEIMSLRAAVRYDPESDTLTLSGEMAVKREQLKNGGLGVVSDAIFELGKSLSAFNLDDTEVALLQAVLLMSTDRSGLLCVDKIEKSQEAYLLAFEHYVNHRKHNIPHFWPKLLMKVTDLRMIGACHASRFLHMKVECPTELFPPLFLEVFEDQEV
notes: mature; 35S-labelled probe; also called rTRα R160 mutant; TR160 mutant
Q: B4 was tested. Which “fold lower signal relative to rTRα (phosphoimager)” value [2] did it give?
A: The value was 10 fold lower.
